Assay results taken from PMC8211771.

Substrate: O=[N+]([O-])c1ccc(O[C@@H]2O[C@H](CO)[C@H](O)[C@H](O)[C@H]2O)cc1
Assay: purified protein
Conditions: 100 mM phosphate-based buffer, 5 μM protein
[1] = pH 8.0, 20 °C (room temperature), Figure 6 legend gives 0.07 mM (±0.012), pH 8.0
[2] = pH 8.4, 20 °C (room temperature), Figure 6 legend gives 0.052 mM (±0.007), pH 8.4
[3] = pH 8.0, 20 °C (room temperature), Figure 6 legend gives 0.13 mM (±0.010), pH 8.0
[4] = pH 8.0, 20 °C (room temperature), Figure 6 legend gives 0.047 mM (±0.005), pH 8.0

B1: BT2857N (Bacteroides thetaiotaomicron VPI-5482) (protein)
chain: CAEDMVKPIENDKDAPGTVQDVKTESLPGAVKFTYTLPSDPDLLYVLAKYTNKTGKVMEFRSSFYTNSVTVEGFGDTDTYKVELYTVDRSENRSQPQIVEVVPLTPPILSCYESLSMVSDFGGMTFEMDNKFKSDLAIYVCTPDELGDMVLAETFYSAREEIVYSVRGYDAVPRRFGIFLQDKYGNETDTLFTELTPIYERELDKT
kcat [1]: 0.046 s⁻¹ | kcat/Km [1]: 657 M⁻¹ s⁻¹

B2: BT3158 (Bacteroides thetaiotaomicron VPI-5482) (protein)
chain: CEDVETHKPYGDGSGHAPGTVQVTSYEQIPGGVTLKFIAPTDEDLLYIKIKYTLDNGKEMEARASLYTDETTIEGFGNTNPKKLVISAVNKMEKEGEAIITEIVPGKPAYLTAIEEIEVNPTFGGIYIHTTNGGRNYLIFDVSTKDSKGNWNIEHTEYTSVKNIGFTLRGFSAEPHDFKVRVRDLYDNQSEEYLTTLTPLYEEKLDLTKFKTFYLANDIKMDNAGHTLESLFNGDHGLNSWNYAHGYDFNPSEFPVWFTFDMGQTAQLSRFTSWQRSMGGSYYYRAGAIKEWEVWGRSDLPSSDGSWDGWTKLADCESIKPSGWPTGSNSEEDITYASKGEEFEFLADIPPVRYIRFKILSTHDGAGLVVMQQLWFYGTPIQ
kcat [2]: 1.21 s⁻¹ | kcat/Km [2]: 23300 M⁻¹ s⁻¹

B3: BT2857 (Bacteroides thetaiotaomicron VPI-5482) (protein)
chain: CAEDMVKPIENDKDAPGTVQDVKTESLPGAVKFTYTLPSDPDLLYVLAKYTNKTGKVMEFRSSFYTNSVTVEGFGDTDTYKVELYTVDRSENRSQPQIVEVVPLTPPILSCYESLSMVSDFGGMTFEMDNKFKSDLAIYVCTPDELGDMVLAETFYSAREEIVYSVRGYDAVPRRFGIFLQDKYGNETDTLFTELTPIYERELDKTKFREMYLQNDSRVDSYDGKMEYVWNGRISKDGDSGGVGLHTGTGTKDGPAVFTFDLGVLAKLSRFALWAIQDEKHFYNDMSPRRYEVWGCATEPNPDGSWDQWVKLLDMENVKPSGSPIGILTEDDIEAAKIGDQANVPLDMPRVRYIRIKCLKNWSNNYNICFTELTFWGNDNEE
kcat [3]: 0.046 s⁻¹ | kcat/Km [3]: 354 M⁻¹ s⁻¹

B4: BT2857C (Bacteroides thetaiotaomicron VPI-5482) (protein)
chain: ELDKTKFREMYLQNDSRVDSYDGKMEYVWNGRISKDGDSGGVGLHTGTGTKDGPAVFTFDLGVLAKLSRFALWAIQDEKHFYNDMSPRRYEVWGCATEPNPDGSWDQWVKLLDMENVKPSGSPIGILTEDDIEAAKIGDQANVPLDMPRVRYIRIKCLKNWSNNYNICFTELTFWGND
kcat [4]: 0.011 s⁻¹ | kcat/Km [4]: 234 M⁻¹ s⁻¹
